# Laboratory results: IntAct's records for PubMed 15774581
# B1: Krueppel-like factor 11 (Homo sapiens), O14901 (parent)
# chain: MHTPDFAGPDDARAVDIMDICESILERKRHDSERSTCSILEQTDMEAVEALVCMSSWGQRSQKGDLLRIRPLTPVSDSGDVTTTVHMDAATPELPKDFHSLSTLCITPPQSPDLVEPSTRTPVSPQVTDSKACTATDVLQSSAVVARALSGGAERGLLGLEPVPSSPCRAKGTSVIRHTGESPAACFPTIQTPDCRLSDSREGEEQLLGHFETLQDTHLTDSLLSTNLVSCQPCLHKSGGLLLTDKGQQAGWPGAVQTCSPKNYENDLPRKTTPLISVSVPAPPVLCQMIPVTGQSSMLPAFLKPPPQLSVGTVRPILAQAAPAPQPVFVGPAVPQGAVMLVLPQGALPPPAPCAANVMAAGNTKLLPLAPAPVFITSSQNCVPQVDFSRRRNYVCSFPGCRKTYFKSSHLKAHLRTHTGEKPFNCSWDGCDKKFARSDELSRHRRTHTGEKKFVCPVCDRRFMRSDHLTKHARRHMTTKKIPGWQAEVGKLNRIASAESPGSPLVSMPASA
# partner: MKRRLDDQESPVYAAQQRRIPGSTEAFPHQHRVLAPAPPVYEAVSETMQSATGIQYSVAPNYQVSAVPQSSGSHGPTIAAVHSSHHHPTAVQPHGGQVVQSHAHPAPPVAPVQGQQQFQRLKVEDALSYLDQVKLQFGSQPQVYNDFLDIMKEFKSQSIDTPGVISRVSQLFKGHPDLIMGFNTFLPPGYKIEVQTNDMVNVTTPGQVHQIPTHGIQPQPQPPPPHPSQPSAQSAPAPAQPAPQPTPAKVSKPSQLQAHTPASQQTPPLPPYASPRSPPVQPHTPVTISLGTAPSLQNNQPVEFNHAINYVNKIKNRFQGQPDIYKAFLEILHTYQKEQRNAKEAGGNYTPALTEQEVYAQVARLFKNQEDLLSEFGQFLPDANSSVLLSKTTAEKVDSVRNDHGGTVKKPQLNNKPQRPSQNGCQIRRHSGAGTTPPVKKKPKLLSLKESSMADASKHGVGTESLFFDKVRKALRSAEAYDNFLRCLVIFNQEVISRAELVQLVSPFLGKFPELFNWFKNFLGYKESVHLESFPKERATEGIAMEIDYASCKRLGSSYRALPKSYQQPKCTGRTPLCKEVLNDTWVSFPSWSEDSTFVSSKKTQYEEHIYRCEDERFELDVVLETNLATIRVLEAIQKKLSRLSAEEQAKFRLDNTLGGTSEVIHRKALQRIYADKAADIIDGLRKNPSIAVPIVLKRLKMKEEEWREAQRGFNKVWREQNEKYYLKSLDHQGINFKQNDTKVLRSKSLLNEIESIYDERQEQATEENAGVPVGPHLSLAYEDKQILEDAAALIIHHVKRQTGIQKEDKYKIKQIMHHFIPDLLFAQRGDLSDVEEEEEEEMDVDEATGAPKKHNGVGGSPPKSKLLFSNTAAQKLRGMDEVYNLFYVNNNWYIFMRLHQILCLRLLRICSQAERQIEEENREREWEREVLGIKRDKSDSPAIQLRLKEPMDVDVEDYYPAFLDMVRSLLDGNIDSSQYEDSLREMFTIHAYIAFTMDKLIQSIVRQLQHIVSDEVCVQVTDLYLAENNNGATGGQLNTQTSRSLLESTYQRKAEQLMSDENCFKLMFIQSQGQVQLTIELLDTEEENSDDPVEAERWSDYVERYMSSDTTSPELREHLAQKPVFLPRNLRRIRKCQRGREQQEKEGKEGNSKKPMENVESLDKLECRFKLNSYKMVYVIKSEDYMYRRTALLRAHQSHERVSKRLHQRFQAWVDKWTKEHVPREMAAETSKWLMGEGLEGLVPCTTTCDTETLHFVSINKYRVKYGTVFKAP
# Variants of: B1
# Conditions: with Sin3a
row,effect of a mutation on the interaction,Variant
1,increasing interaction,MHTPDFAGPDDARAVDIMDICESILERKRHDSERSTCSILEQTDMEAVEALVCMSSWGQRSRKGDLLRIRPLTPVSDSGDVTTTVHMDAATPELPKDFHSLSTLCITPPQSPDLVEPSTRTPVSPQVTDSKACTATDVLQSSAVVARALSGGAERGLLGLEPVPSSPCRAKGTSVIRHTGESPAACFPTIQTPDCRLSDSREGEEQLLGHFETLQDTHLTDSLLSTNLVSCQPCLHKSGGLLLTDKGQQAGWPGAVQTCSPKNYENDLPRKTTPLISVSVPAPPVLCQMIPVTGQSSMLPAFLKPPPQLSVGTVRPILAQAAPAPQPVFVGPAVPQGAVMLVLPQGALPPPAPCAANVMAAGNTKLLPLAPAPVFITSSQNCVPQVDFSRRRNYVCSFPGCRKTYFKSSHLKAHLRTHTGEKPFNCSWDGCDKKFARSDELSRHRRTHTGEKKFVCPVCDRRFMRSDHLTKHARRHMTTKKIPGWQAEVGKLNRIASAESPGSPLVSMPASA [Q62R]
